Test results reported in article PMC3477590.

Columns and labels:
CFP-RBX1-CUL1^CTD~NEDD8 = CFP-RBX1-CUL1^CTD~NEDD8 (UniProt P62877); assay: FRET or BRET
[1] = molecular target: CFP-RBX1-CUL1^CTD (human) (UniProt P62877); assay: FRET or BRET
CFP-RBX1^RING (human) = CFP-RBX1^RING (human) (UniProt P62877); assay: FRET or BRET
[2] = molecular target: cellular RBX1 (Fig. S7) (human) (UniProt P62877)
cellular RBX1 (Fig. S7) (human), sequence (P62877 whole entry): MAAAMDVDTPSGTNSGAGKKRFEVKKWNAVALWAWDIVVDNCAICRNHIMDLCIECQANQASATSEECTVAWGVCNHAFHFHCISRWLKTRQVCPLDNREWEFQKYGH

GLMN-YFP, sequence (Q92990 whole entry): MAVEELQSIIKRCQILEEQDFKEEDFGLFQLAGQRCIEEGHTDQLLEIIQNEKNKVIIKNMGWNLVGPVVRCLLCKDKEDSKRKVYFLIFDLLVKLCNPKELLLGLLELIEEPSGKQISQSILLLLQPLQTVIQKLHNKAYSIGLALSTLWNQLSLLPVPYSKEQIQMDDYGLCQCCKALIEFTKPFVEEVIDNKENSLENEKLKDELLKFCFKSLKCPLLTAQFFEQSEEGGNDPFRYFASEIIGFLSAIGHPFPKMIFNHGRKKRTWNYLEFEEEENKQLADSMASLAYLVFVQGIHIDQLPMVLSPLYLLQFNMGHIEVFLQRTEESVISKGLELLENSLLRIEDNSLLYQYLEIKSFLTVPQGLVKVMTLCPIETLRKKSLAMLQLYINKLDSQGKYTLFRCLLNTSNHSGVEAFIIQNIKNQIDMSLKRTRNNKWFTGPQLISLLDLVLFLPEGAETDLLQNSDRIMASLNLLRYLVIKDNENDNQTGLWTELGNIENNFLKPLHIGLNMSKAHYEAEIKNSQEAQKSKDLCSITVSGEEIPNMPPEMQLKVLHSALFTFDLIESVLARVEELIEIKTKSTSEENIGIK
GLMN in cells (Fig. S7), sequence (Q92990 whole entry): as above
CFP-RBX1-CUL1^CTD~NEDD8, sequence (P62877 whole entry, chain 1 of 3): as the sequence (P62877 whole entry) above
CFP-RBX1-CUL1^CTD~NEDD8, sequence (Q13616 411-776, chain 2 of 3, further chain): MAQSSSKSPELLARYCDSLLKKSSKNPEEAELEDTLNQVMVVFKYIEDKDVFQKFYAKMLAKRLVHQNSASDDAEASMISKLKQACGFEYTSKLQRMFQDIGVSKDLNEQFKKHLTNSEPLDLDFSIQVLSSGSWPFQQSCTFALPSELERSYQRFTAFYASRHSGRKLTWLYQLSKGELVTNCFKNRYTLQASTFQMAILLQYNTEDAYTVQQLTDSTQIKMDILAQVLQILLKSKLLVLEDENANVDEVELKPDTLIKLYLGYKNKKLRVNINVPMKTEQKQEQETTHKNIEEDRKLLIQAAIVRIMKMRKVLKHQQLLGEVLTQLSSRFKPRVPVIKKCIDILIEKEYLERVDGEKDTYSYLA
CFP-RBX1-CUL1^CTD~NEDD8, sequence (Q15843 1-76, chain 3 of 3, further chain): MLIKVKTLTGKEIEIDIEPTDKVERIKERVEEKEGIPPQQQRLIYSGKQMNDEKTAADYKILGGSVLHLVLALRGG
CFP-RBX1-CUL1^CTD (human), sequence (P62877 whole entry, chain 1 of 2): as the sequence (P62877 whole entry) above
CFP-RBX1-CUL1^CTD (human), sequence (Q13616 411-776, chain 2 of 2, further chain): as the sequence (Q13616 411-776, chain 2 of 3, further chain) above
CFP-RBX1^RING (human), sequence (P62877 whole entry): as the sequence (P62877 whole entry) above

Substance	Kd (CFP-RBX1-CUL1^CTD~NEDD8)	Kd [1]	Kd (CFP-RBX1^RING (human))	percent of cellular RBX1 bound by GLMN [2]
GLMN-YFP (from UniProt Q92990 1-594) (natural protein)	0.028 µM	0.036 µM	0.045 µM	–
GLMN in cells (Fig. S7) (from UniProt Q92990 1-594) (natural protein)	–	–	–	7 percent
